Assay results as given in patent publication US20260152559A1 (Janssen / Centocor, published 2026).
Changes are numbered by the printed parent chain.

B1: KL2B494 Fab (binding arm listed in Table 39 for hK2/CD3 bispecific antibodies) (bispecific antibody, V domains shown)
VH: QVQLVESGGGLVQPGGSLRLSCAASGFTFSHYAMSWVRQAPGKGLEWVSTIGGSGGSTYYADSVKGRFTISRDNSKNTLYLQMNSLRAEDTAVYYCAKPHIVMVTALLYDGMDVWGQGTMVTVSS
VL: SSELTQPPSVSVAPGQTARITCGGNNIGSKSVHWYQQKPGQAPVLVVYDDSDRPSGIPERFSGSNSGNTATLTISRVEAGDEADYYCQVWDSSSDHVVFGGGTKLTVL
B2: KL2B467 Fab (binding arm listed in Table 39 for hK2/CD3 bispecific antibodies) (bispecific antibody, V domains shown)
VH: QVQLVESGGGVVQPGRSLRLSCAASGFTFSYYGMHWVRQAPGKGLEWVAFISYDGSNKYYADSVKGRFTISRDNSKNTLYLQMNSLRAEDTAVYYCAHLPYSGSYWAFDYWGQGTQVTVSS
VL: QSVLTQPPSVSVAPGQTASITCGGDNIGSKSVHWYQQKPGQAPVLVVYDNSDRPSGIPERFSGSNSGTTATLTISRVEAGDEADYYCQVWDSSSDHPVVFGGGTKVTV
B3: KL2B494 (Fab) (Fab, V domains shown)
VH: B1 VH
VL: B1 VL
B4: KL2B467 (Fab) (Fab, V domains shown)
VH: B2 VH
VL: B2 VL
B5: KL2B359 (scFv-LH-Fc) (Fc fusion)
chain: EIVLTQSPATLSLSPGERATLSCRASESVEYFGTSLMHWYQQKPGQPPRLLIYAASNVESGIPARFSGSGSGTDFTLTISSVEPEDFAVYFCQQTRKVPYTFGGGTKVEIKGGSEGKSSGSGSESKSTGGSQVQLQESGPGLVKPSQTLSLTCTVSGNSITSDYAWNWIRQFPGKRLEWIGYISYSGSTTYNPSLKSRVTISRDTSKNQFSLKLSSVTAADTAVYYCATGYYYGSGFWGQGTLVTVSSEPKSSDKTHTCPPCPAPEAAGGPSVFLFPPKPKDTLMISRTPEVTCVVVSVSHEDPEVKFNWYVDGVEVHNAKTKPREEQYNSTYRVVSVLTVLHQDWLNGKEYKCKVSNKALPAPIEKTISKAKGQPREPQVYVLPPSREEMTKNQVSLLCLVKGFYPSDIAVEWESNGQPENNYLTWPPVLDSDGSFFLYSKLTVDKSRWQQGNVFSCSVMHEALHNHYTQKSLSLSPG
notes: also called KL2B359-LH-scFv-Fc
B6: KL2B242 (Fab) (Fab, V domains shown)
VH: QVQLQESGPGLVKPSETLSLTCTVSGGSISSYYWSWLRQPAGSGLEWIGRLYVSGFTNYNPSLKSRVTLSLDPSRNQLSLKLSSVTAADTAVYYCAGDSGNYWGWFDPWGQGTLVTVSS
VL: SYELTQPPSVSVSPGETASITCSGDQLGENYACWYQQKPGQSPVLVIYQDSKRPSGIPERFSGSNSGNTATLTISGTQALDEADYYCQAWDNSIVVFGGGTKLTVL
B7: KL2B53 (Fab) (Fab, V domains shown)
VH: EVQLVESGGGVVQPGRSLRLSCVASGFTFSSYDIHWVRQAPGKGLEWVAIISYDGSKKDYTDSVKGRFTISRDNSKNTLYLQMDSLRVEDSAVYSCARESGWSHYYYYGMDVWGQGTMVTVSS
VL: DIVMTQSPSSLSASVGDRVTITCRASQDISNYLAWYQQKPGKVPKFLIYAASTLHSGVPSRFSGSGSGTDFTLTISSLQPEDVATYYCQKYNSAPYTFGQGTRLEIK
B8: KL2B30 (Fab) (Fab, V domains shown)
VH: QVQLQESGPGLVKPSETLSLTCTVSGGSISSYYWSWIRQPPGKGLEWIGYIYYSGSTNYNPSLKSRVTISVDTSKNQFSLKLSSVTAADTAVYYCAGTTIFGVVTPNFYYGMDVWGQGTTVTVSS
VL: DIQMTQSPSFLSASVGDRVTITCRASQGISSYLAWYQQKPGKAPKFLIYAASTLQSGVPSRFSGSGSGTEFTLTISSLQPEDFATYYCQQLNSYPLTFGGGTKVEIK
B9: KL2B413 (scFv-LH-Fc) (Fc fusion)
chain: EIVLTQSPSFLSASVGDRVTITCRASQGISSYLSWYQQKPGKAPKLLIYATSTLQSGVPSRFSGSGSGTEFTLTISSLQPEDFATYYCQQLNSYPRTFGQGTKVEIKGGSEGKSSGSGSESKSTGGSEVQLVESGGGLVQPGGSLRLSCAASGFTFSSYWMTWVRQAPGKGLEWVANIKQDGSERYYVDSVKGRFTISRDNAKNSLYLQMNSLRAEDTAVYYCARDQNYDILTGHYGMDVWGQGTTVTVSSEPKSSDKTHTCPPCPAPEAAGGPSVFLFPPKPKDTLMISRTPEVTCVVVSVSHEDPEVKFNWYVDGVEVHNAKTKPREEQYNSTYRVVSVLTVLHQDWLNGKEYKCKVSNKALPAPIEKTISKAKGQPREPQVYVLPPSREEMTKNQVSLLCLVKGFYPSDIAVEWESNGQPENNYLTWPPVLDSDGSFFLYSKLTVDKSRWQQGNVFSCSVMHEALHNHYTQKSLSLSPG
notes: also called KL2B413-LH-scFv-Fc
B10: CAR13 (HL_HCHumanized_LCHumanized_20AA) (other)
chain: QVQLQESGPGLVKPSDTLSLTCAVSGNSITSDYAWNWIRQPPGKGLEWIGYISYSGSTTYNPSLKSRVTMSRDTSKNQFSLKLSSVTAVDTAVYYCATGYYYGSGFWGQGTLVTVSSGGSEGKSSGSGSESKSTGGSDIVLTQSPDSLAVSLGERATINCKASESVEYFGTSLMHWYQQKPGQPPKLLIYAASNRESGVPDRFSGSGSGTDFTLTISSLQAEDVAVYYCQQTRKVPYTFGQGTKLEIKTSTPAPRPPTPAPTIASQPLSLRPEACRPAAGGAVHTRGLDFACDIYIWAPLAGTCGVLLLSLVITLYCKRGRKKLLYIFKQPFMRPVQTTQEEDGCSCRFPEEEEGGCELRVKFSRSADAPAYKQGQNQLYNELNLGRREEYDVLDKRRGRDPEMGGKPRRKNPQEGLYNELQKDKMAEAYSEIGMKGERRRGKGHDGLYQGLSTATKDTYDALHMQALPPR
notes: Chimeric antigen receptor with the hu11B6 scFv in VH-linker-VL order, on JNL cells or primary human T cells; also called 11B6_HL; parental 11B6 CAR HL
B11: CAR2 (HL_HCG5_LCHumanized_20AA) (other)
chain: B10 chain with P41F, I49M, M70I, A88P
notes: Chimeric antigen receptor on JNL cells or primary human T cells; also called hK2 CAR; pDR000083432
B12: CAR1 (HL_HCG5_LCD6_20AA) (other)
chain: B10 chain with P41F, I49M, M70I, A88P, S217Q, L219V, A225S, Y228F
notes: Chimeric antigen receptor (scFv, CD8a hinge and transmembrane region, 4-1BB and CD3-zeta domains) on JNL cells or primary human T cells; also called hK2 CAR; pDR000083431
B13: CAR7 (LH_LCHumanized_HCG5_20AA) (other)
chain: DIVLTQSPDSLAVSLGERATINCKASESVEYFGTSLMHWYQQKPGQPPKLLIYAASNRESGVPDRFSGSGSGTDFTLTISSLQAEDVAVYYCQQTRKVPYTFGQGTKLEIKGGSEGKSSGSGSESKSTGGSQVQLQESGPGLVKPSDTLSLTCAVSGNSITSDYAWNWIRQFPGKGLEWMGYISYSGSTTYNPSLKSRVTISRDTSKNQFSLKLSSVTPVDTAVYYCATGYYYGSGFWGQGTLVTVSSTSTPAPRPPTPAPTIASQPLSLRPEACRPAAGGAVHTRGLDFACDIYIWAPLAGTCGVLLLSLVITLYCKRGRKKLLYIFKQPFMRPVQTTQEEDGCSCRFPEEEEGGCELRVKFSRSADAPAYKQGQNQLYNELNLGRREEYDVLDKRRGRDPEMGGKPRRKNPQEGLYNELQKDKMAEAYSEIGMKGERRRGKGHDGLYQGLSTATKDTYDALHMQALPPR
notes: Chimeric antigen receptor on JNL cells or primary human T cells; also called hK2 CAR; pDR000083441
B14: CAR6 (LH_LCHumanized_HCF3_20AA) (other)
chain: B13 chain with M180I
notes: Chimeric antigen receptor on JNL cells or primary human T cells; also called hK2 CAR; pDR000083440
B15: CAR15 (LH_LCHumanized_HCHumanized_20AA) (other)
chain: B13 chain with F172P, M180I, I201M, P219A
notes: Chimeric antigen receptor with the hu11B6 scFv in VL-linker-VH order, on JNL cells or primary human T cells; also called 11B6_LH; parental 11B6 CAR LH
B16: CAR4 (HL_HCG5_LCB7_20AA) (other)
chain: B10 chain with P41F, I49M, M70I, A88P, L219V
notes: Chimeric antigen receptor on JNL cells or primary human T cells; also called hK2 CAR; pDR000083437
B17: CAR3 (HL_HCF3_LCB7_20AA) (other)
chain: B10 chain with P41F, M70I, A88P, L219V
notes: Chimeric antigen receptor on JNL cells or primary human T cells; also called hK2 CAR; pDR000083436
B18: CAR8 (LH_LCB7_HCF3_20AA) (other)
chain: B13 chain with L82V, M180I
notes: Chimeric antigen receptor on JNL cells or primary human T cells; also called hK2 CAR; pDR000083443
B19: CAR9 (LH_LCB7_HCG5_20AA) (other)
chain: B13 chain with L82V
notes: Chimeric antigen receptor on JNL cells or primary human T cells; also called hK2 CAR; pDR000083444

Each binder was assayed against T1, kallikrein related peptidase 2 (hK2), soluble (human, UniProt P20151 19-261, biotin label in the CAR staining assays (site not stated)) (assay: SPR; bispecific antibody captured on anti-Fc sensor chip, soluble hK2 injected; 1:1 Langmuir fit).
T1 construct: also called KLK2; human KLK2 protein
T1 sequence (P20151 19-261): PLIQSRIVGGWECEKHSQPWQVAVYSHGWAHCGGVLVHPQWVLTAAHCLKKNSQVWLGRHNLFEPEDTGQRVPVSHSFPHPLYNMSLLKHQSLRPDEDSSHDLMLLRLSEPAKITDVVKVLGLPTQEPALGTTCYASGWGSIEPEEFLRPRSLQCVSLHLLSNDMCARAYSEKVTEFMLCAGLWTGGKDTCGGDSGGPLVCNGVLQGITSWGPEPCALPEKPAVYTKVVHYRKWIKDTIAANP
In the case of B1, the Kd is reported as 0.06 nM.
With B2 the Kd was 0.09 nM.

What follows are binders tested against T1, kallikrein related peptidase 2 (hK2), … (assay: SPR; antibody captured on anti-Fc sensor chip, soluble hK2 injected; 1:1 Langmuir fit, KD = koff/kon).
Experimental: Affinity of selected hK2 antibodies for soluble hK2 was measured by surface plasmon resonance (SPR). […] Antibodies were captured on a sensor chip coated with an anti-Fc antibody followed by injection of soluble hK2 at various concentrations and specified association and dissociation times. Post dissociation, the surface was regenerated with an appropriate solution to prepare for the next interaction. Kinetic information (on-rate and off-rate constants) were extracted by fitting sensorgrams to the 1:1 Langmuir model. Binding affinity (KD) are reported as the ratio of rate constants (koff/kₒₙ).
With B3 the Kd was 0.053 nM.
B4 showed a Kd of 0.078 nM.
In the case of B5, the Kd is reported as 0.7 to 1 nM.
With B6 the Kd was 0.04 nM.
With B7 the Kd was 0.08 nM.
For B8, the Kd was 0.46 nM.
B9 showed a Kd of 34.3 nM.

What follows are binders tested against T1, kallikrein related peptidase 2 (hK2), … (assay: flow cytometry, primary human T cells transduced with the CAR lentivirus (MOI 3), biotinylated hK2 (1 ug/ml) then streptavidin-PE, 14 days after transduction; UTD gate 0.086).
For B10, the “% of cells in the hK2CAR+ CD3+ gate” value was 6.12%.
For B11, the “% of cells in the hK2CAR+ CD3+ gate” value was 23.6%.
In the case of B12, the “% of cells in the hK2CAR+ CD3+ gate” value is reported as 20%.
B13 was tested, and the “% of cells in the hK2CAR+ CD3+ gate” value was 35%.
B14 was tested, and the “% of cells in the hK2CAR+ CD3+ gate” value was 27.8%.
In the case of B15, the “% of cells in the hK2CAR+ CD3+ gate” value is reported as 22.6%.

Each binder was assayed against T1, kallikrein related peptidase 2 (hK2), … (assay: flow cytometry, primary human T cells transduced with the CAR lentivirus (MOI 3), biotinylated hK2 (1 ug/ml) then streptavidin-PE, 14 days after transduction; UTD gate 0.086 [contd]).
B16 was tested, and the “% of cells in the hK2CAR+ CD3+ gate” value was 42.7%.
For B17, the “% of cells in the hK2CAR+ CD3+ gate” value was 29.4%.
In the case of B18, the “% of cells in the hK2CAR+ CD3+ gate” value is reported as 21.5%.
For B19, the “% of cells in the hK2CAR+ CD3+ gate” value was 30.6%.
